In article PMC7237134:

What was measured:
Assay in all cases: fluorescence anisotropy
Sgd1 MA3-Cterm = target: T1, Sgd1 MA3-Cterm (Saccharomyces cerevisiae, UniProt Q06132 645-899)
T1 sequence: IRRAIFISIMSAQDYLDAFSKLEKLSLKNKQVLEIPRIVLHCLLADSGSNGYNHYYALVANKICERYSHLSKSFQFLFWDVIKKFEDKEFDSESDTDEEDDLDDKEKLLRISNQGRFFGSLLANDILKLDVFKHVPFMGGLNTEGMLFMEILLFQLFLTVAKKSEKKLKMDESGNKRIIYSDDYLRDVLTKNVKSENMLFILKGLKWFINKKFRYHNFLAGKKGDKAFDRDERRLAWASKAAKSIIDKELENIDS

[1] = target: T2, Sgd1 MIF4G-Cterm (MIF4G, MA3 and C-terminal region) (Saccharomyces cerevisiae, UniProt Q06132 330-899)
T2 sequence: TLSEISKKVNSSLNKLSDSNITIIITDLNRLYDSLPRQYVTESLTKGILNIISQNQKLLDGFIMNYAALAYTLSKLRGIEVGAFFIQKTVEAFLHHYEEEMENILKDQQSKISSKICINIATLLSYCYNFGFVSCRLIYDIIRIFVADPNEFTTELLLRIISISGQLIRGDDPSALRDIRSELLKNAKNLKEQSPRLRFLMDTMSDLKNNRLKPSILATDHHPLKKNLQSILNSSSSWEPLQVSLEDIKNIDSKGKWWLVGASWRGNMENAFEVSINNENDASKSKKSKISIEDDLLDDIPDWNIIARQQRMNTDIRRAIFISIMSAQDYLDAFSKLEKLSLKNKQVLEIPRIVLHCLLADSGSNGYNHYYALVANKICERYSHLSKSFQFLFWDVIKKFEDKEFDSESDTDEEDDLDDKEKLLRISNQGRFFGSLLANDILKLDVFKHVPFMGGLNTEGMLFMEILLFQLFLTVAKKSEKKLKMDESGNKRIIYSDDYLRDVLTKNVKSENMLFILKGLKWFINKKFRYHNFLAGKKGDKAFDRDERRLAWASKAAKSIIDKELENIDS

Sgd1 Nterm-MIF4G = target: T3, Sgd1 Nterm-MIF4G (Saccharomyces cerevisiae, UniProt Q06132 1-541)
T3 sequence: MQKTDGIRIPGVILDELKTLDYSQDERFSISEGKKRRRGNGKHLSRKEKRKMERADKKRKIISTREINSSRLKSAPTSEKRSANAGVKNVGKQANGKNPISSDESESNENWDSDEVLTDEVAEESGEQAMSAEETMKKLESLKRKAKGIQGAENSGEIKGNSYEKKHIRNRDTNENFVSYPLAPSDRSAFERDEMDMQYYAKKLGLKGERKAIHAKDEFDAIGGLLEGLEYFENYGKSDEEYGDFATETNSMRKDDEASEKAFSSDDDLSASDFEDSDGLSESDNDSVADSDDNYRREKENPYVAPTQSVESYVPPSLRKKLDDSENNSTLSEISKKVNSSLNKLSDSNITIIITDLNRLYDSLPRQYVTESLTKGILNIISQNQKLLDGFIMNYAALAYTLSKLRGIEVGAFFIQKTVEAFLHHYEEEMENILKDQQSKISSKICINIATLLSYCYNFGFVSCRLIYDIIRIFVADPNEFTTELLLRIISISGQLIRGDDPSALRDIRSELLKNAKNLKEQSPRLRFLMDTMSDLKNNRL

GUAAUGAAAGU (ssRNA) [11 nt Atto647-labelled RNA]
binding result (Sgd1 MA3-Cterm): binds
binding result [1]: binds
binding result (Sgd1 Nterm-MIF4G): no binding
